The source of these data is patent US20080032921A1.

B1: … (Flu.PB2.250) (peptide)
peptide: GGEVRNDDVDQSLII
modifications: not checked
B2: … (Flu.PB2.57) (peptide)
peptide: KYPITADKRIMEMIP
modifications: not checked
B3: Flu.NA.110 peptide … (peptide)
peptide: RTFFLTQGALLNDKHS
modifications: not checked
B4: Flu.NA.126 peptide … (peptide)
peptide: NGTVKDRSPHRTLMS
modifications: not checked
B5: Flu.NA.183 peptide … (peptide)
peptide: VAVLKYNGIITDTIKSW
modifications: not checked
B6: Flu.NA.26 peptide … (peptide)
peptide: IGNMISIWVSHSIHTG
modifications: not checked
B7: Flu.HA.210 (peptide)
peptide: PTTYISVGTSTLNQRL
modifications: not checked
B8: Flu.HA.529 (peptide)
peptide: IYQILSIYSTVASSLA
modifications: not checked
B9: Flu.M1.46 (peptide)
peptide: MEWLKTRPILSPLTK
modifications: not checked
B10: Flu.HA.163 (peptide)
peptide: VVWLIKKNSTYPTIKR
modifications: not checked
B11: Flu.M1.43 (peptide)
peptide: EALMEWLKTRPILSP
modifications: not checked
B12: Flu.HA.532 (peptide)
peptide: ILSIYSTVASSLALAI
modifications: not checked
B13: Flu.M1.51 (peptide)
peptide: TRPILSPLTKGILGF
modifications: not checked

In one experiment the target is purified HLA-DR molecule DRB1*0401 (human). The experiment can be described thus: competition with 125I-labelled peptide for purified HLA.
Regarding B1, the IC50 was found to be 2160 nM.

Take B2: the IC50 stood at 9390 nM.

Another experiment has as its target purified HLA-DR molecule DRB1*0301 (human). Described as above.
B1 had an IC50 of 347 nM.

In turn, B2 had an IC50 of 48 nM. This IC50 lies about 7.2-fold lower than the previous one.

For the next experiment, the target named is purified HLA-DR molecule DRB1*1302 (human). Described as above.
Consider B1, for which the IC50 amounted to 2500 nM.

Molecule B2 showed an IC50 of 68 nM.

The next experiment has as its target purified HLA-DR molecule DRB1*0404 (human). Described as above.
Regarding B1, the IC50 was 458 nM.

As to B2, the IC50 stood at 2290 nM.

The next experiment deals with HLA-DR DRB1*1302 (human). The experiment is described as follows: competition with 125I-labelled reference peptide on purified HLA-DR.
Molecule B3 had an IC50 of 3200 nM.

Molecule B4 came in with an IC50 of 7930 nM.

In turn, B5 yielded an IC50 of 169 nM.

Turning to B6, the IC50 worked out at 5950 nM.

The target of the next experiment is HLA-DR DRB1*1501 (human). The experiment is described as above.
B3 had an IC50 of 790 nM.

For B4, the IC50 was 267 nM.

B5 had an IC50 of 19 nM. This IC50 is about 14-fold lower than that of the molecule before.

In turn, B6 came in with an IC50 of 81 nM.

In a further experiment the target is HLA-DR DRB1*0401 (human). The experiment is described as above.
The molecule B3 returned an IC50 of 251 nM.

With B4, the IC50 is 17900 nM. Compared with the last molecule, the IC50 is about 71-fold higher.

In turn, B5 showed an IC50 of 319 nM.

As for B6, the IC50 came out at 925 nM.

Another experiment deals with HLA-DR DRB4*0101 (human). The description is as above.
Turning to B3, the IC50 stood at 2320 nM.

For the molecule B4, the IC50 is 8880 nM.

B5 gave an IC50 of 289 nM.

The molecule B6 registered an IC50 of 817 nM.

Another experiment deals with HLA-DR DRB1*0101 (human). The experiment is described as above.
As to B3, the IC50 is 16 nM. That is a double-digit nanomolar value.

B4: the IC50 stood at 581 nM.

The molecule B5 displayed an IC50 of 3390 nM. This IC50 lies about 5.8-fold higher than the previous one.

The molecule B6 gave an IC50 of 1050 nM. Against the preceding molecule, the IC50 is about 3.2-fold lower.

The next experiment has as its target HLA-DR DRB1*1302 (human). The experiment can be described thus: competition vs 125I-labeled peptide, purified HLA.
Molecule B7 registered an IC50 of 957 nM.

B8: the IC50 amounted to 13 nM.

Molecule B9 displayed a half-inhibitory concentration (IC50) of 3880 nM.

Molecule B10 showed an IC50 of 14 nM.

As to B11, the IC50 was 380 nM.

In turn, B12 returned an IC50 of 7.6 nM.

B13 gave an IC50 of 292 nM.

A further experiment has as its target HLA-DR DRB1*1501 (human). The experiment is described as follows: competition vs 125I-labeled peptide, purified HLA.
Regarding B7, the IC50 worked out at 1720 nM.

Molecule B8 yielded an IC50 of 4.7 nM.

B9: the IC50 turned out to be 111 nM.

B10 yielded an IC50 of 99 nM.

Regarding B11, the IC50 was 18 nM.

Take B12: the IC50 amounted to 20 nM.

In turn, B13 returned an IC50 of 140 nM.

Another experiment has as its target HLA-DR DRB1*0401 (human). The experiment is described as follows: competition vs 125I-labeled peptide, purified HLA.
As for B7, the IC50 was 59 nM.

For the molecule B8, the IC50 amounted to 89 nM. Against the preceding molecule, the IC50 is about 1.5-fold higher.

On to B9, for which the IC50 was determined as 528 nM.

B10 showed an IC50 of 289 nM.

For the molecule B11, the IC50 came out at 891 nM. This IC50 is about 3.1-fold higher than that of the molecule before.

Take B12: the IC50 is 91 nM.

In a further experiment the target is HLA-DR DRB4*0101 (human). The experiment is described as follows: competition vs 125I-labeled peptide, purified HLA.
For the molecule B7, the IC50 was determined as 522 nM.

Regarding B8, the IC50 was 18 nM.

The molecule B9 displayed an IC50 of 7940 nM.

As for B10, the IC50 turned out to be 1660 nM.

The molecule B11 had an IC50 of 5510 nM.

B12 registered an IC50 of 824 nM. This IC50 is about 6.7-fold lower than that of the molecule before.

B13: the IC50 was 192 nM.

In a further experiment the target is HLA-DR DRB1*0101 (human). The experiment is described as follows: competition vs 125I-labeled peptide, purified HLA.
On to B7, for which the IC50 was found to be 190 nM.

With B8, the IC50 came to 55 nM.

As to B9, the IC50 came out at 52 nM.

Molecule B10 came in with an IC50 of 464 nM.

Regarding B11, the IC50 worked out at 9.5 nM. This IC50 is about 49-fold lower than that of the molecule before.

As to B12, the IC50 amounted to 11 nM.

For the molecule B13, the IC50 is 423 nM.

Usually IC50 stands for the concentration at which inhibition is half-maximal.
